We go through 4 molecules from article PMC8595387 (Scientific Reports, 2021).

Experiment [1] addresses T1, Recombinant Human ADAMTS13 (Full Length) Protein (Homo sapiens, UniProt Q76LX8). The experiment in a line: cell-based or functional assay.
Experiment [2] deals with T1, Recombinant Human ADAMTS13 (Full …). The experiment in a line: SPR; Biacore T200; antibodies captured at about 1,000 RU on anti-human or anti-mouse IgG (Fc) on a CM5 chip; ADAMTS13 injected at 80 nM to 0.625 nM in PBS with 0.05% Tween 20; 25 C; 30 uL/min; contact 240 s, dissociation 900 s; 1:1 binding model. Particulars: both partners purified. For orientation: In SPR one partner is held on a chip, and binding of the other changes the refractive index at the surface.

T1 sequence (Q76LX8 75-1427): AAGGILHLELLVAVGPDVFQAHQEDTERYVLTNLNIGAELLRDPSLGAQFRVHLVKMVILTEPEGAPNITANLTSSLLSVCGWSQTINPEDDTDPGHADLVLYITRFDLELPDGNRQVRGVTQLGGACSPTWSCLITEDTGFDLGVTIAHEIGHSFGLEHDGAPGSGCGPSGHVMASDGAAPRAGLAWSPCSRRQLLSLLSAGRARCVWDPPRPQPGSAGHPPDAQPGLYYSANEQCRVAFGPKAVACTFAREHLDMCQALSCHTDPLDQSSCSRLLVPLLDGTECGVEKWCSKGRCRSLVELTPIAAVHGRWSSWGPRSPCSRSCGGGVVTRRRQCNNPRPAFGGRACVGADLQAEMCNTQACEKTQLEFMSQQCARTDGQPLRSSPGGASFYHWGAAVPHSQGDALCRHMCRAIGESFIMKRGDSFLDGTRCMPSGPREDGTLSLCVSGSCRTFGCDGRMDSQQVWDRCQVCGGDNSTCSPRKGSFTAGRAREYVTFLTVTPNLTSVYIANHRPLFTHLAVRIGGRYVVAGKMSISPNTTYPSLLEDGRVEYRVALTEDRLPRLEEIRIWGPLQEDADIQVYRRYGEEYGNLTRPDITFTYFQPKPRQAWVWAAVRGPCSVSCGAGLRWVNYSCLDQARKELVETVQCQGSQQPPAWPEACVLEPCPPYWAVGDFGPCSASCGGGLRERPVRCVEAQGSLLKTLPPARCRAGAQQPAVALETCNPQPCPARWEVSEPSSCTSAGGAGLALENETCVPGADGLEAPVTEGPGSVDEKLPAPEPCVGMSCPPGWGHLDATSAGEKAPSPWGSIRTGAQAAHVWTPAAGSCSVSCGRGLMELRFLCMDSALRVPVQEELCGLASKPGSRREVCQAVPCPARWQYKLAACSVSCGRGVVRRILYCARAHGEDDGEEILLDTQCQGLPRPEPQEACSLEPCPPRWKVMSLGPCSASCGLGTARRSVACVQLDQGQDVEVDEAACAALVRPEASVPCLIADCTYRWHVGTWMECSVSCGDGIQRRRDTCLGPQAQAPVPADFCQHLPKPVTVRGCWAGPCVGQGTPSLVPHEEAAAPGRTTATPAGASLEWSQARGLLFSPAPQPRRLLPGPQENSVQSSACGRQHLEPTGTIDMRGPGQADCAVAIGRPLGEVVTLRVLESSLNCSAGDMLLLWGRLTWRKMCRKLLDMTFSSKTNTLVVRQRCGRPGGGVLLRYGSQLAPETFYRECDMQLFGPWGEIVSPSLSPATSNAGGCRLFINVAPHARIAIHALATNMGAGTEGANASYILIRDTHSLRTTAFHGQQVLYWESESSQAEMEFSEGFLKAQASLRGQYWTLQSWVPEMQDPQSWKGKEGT

B1: humanized A10 antibody A10/8A7 (antibody, V domains shown)
VH: QIHLVESGGGVVQTGKSMKISCKASGYSFTGYTMHWVKQTPGKNLEWIGLINPYNGGTGYNQKFKGKATLTVDKSSSTTYIELLSLTSEDSAVYYCARTSGYLFAYWGQGTLVTVSS
VL: ETVMTQSPATLSVSPGERATITCKASEDIYNRLAWYQQKPGQAPRLLISGATSLETGVPSRFSGSGSGTEFTLTISSLQSEDVATYYCQQYWSSPLTFGAGTKLEIK
As for B1, the “IC50 of inhibition of plasma ADAMTS13 activity on VWF cleavage (chromogenic ELISA, normal pooled plasma, antibody 25 to 0.20 ug/mL)” value in experiment [1] turned out to be 7.3 µg/mL. In addition, in experiment [2], the dissociation constant (Kd) is 20.8 nM, the off-rate constant (koff) stood at 0.000193 s⁻¹ and the kon worked out at 9270 M⁻¹ s⁻¹.

B2: mouse anti-ADAMTS13 antibody clone A10 (antibody, V domains shown)
VH: EVQLQQSGPELVKPGTSMKISCKASGYSFTGYTMHWVKQSHGKNLEWIGLINPYNGGTGYNQKFKGKATLTVDKSSSTTYIELLSLTSEDSAVYYCARTSGYLFAYWGQGTLVTVSA
VL: DIQMTQSSSSFSVSLGDRVTITCKASEDIYNRLAWYQQKPGNAPRLLISGATSLETGVPSRFSGSGSGKDYIFSITSLQTEDVATYYCQQYWSSPLTFGAGTKLELK
notes: VH of mA10; mouse heavy chain constant region cloned from the mA10 hybridoma; VL of mA10; mouse light chain constant region cloned from the mA10 hybridoma; Whole mouse IgG; mouse IgG2b served as the negative control, which may hint at IgG2b (surmise); also called mA10; mouse A10; source: Expi293F, transiently transfected, purified (protein G)
Take B2: in experiment [1], the “IC50 of inhibition of plasma ADAMTS13 activity on VWF cleavage (chromogenic ELISA, normal pooled plasma, antibody 25 to 0.20 ug/mL)” value worked out at 2.28 µg/mL. For the same molecule, in experiment [2], the Kd was determined as 5.99 nM, the off-rate (koff) is 0.000362 s⁻¹ and the kon was determined as 60400 M⁻¹ s⁻¹.

B3: human-mouse chimeric A10 (antibody, V domains shown)
VH: B2 VH
VL: B2 VL
B3: in experiment [1], the “IC50 of inhibition of plasma ADAMTS13 activity on VWF cleavage (chromogenic ELISA, normal pooled plasma, antibody 25 to 0.20 ug/mL)” value stood at 2.3 µg/mL. In experiment [2], the Kd is 2.8 nM, the koff turned out to be 2.03e-05 s⁻¹ and the kon was found to be 7270 M⁻¹ s⁻¹.

B4: humanized A10 antibody A10/16E8 (antibody, V domains shown)
VH: QVQLVQSGGQVKKPGASVKISCKASGYSFTGYTMHWVKQAPGRGLEWIGLINPYNGGTGYNQKFKGKATLTVDKSSSTTYIELLSLTSEDSAVYYCARTSGYLFAYWGQGTLVTVSS
VL: DIVLTQTPDSLAVSLGERATITCKASEDIYNRLAWYQQKAGQPPKLLISGATSLETGVPDRFSGSGSGTDFTLTISSLQAEDVATYYCQQYWSSPLTFGAGTKVNIK
notes: VH of A10/16E8 (CDRs and flanking FR residues of mA10 grafted onto the human framework 16E8); VL of A10/16E8 (CDRs and flanking FR residues of mA10 grafted onto the human framework 16E8); also called A10/16A8 (as printed once in the discussion); source: Expi293F, transiently transfected, purified (protein G)
As to B4, in experiment [1], the “IC50 of inhibition of plasma ADAMTS13 activity on VWF cleavage (chromogenic ELISA, normal pooled plasma, antibody 25 to 0.20 ug/mL)” value worked out at 0.9 µg/mL. Besides, in experiment [2], the Kd is 5.07 nM, the koff was 6.3e-05 s⁻¹ and the kon turned out to be 12400 M⁻¹ s⁻¹.

What is called Kd is the constant that tells how readily two partners part at equilibrium. By koff is commonly meant the rate constant with which the complex falls apart. For orientation: kon means the second-order rate constant of association.
